Measured values taken from US6835382B2, “Ii peptide therapeutics to enhance antigen presentation” (University of Massachusetts, priority 1996, dated 2004).

Target: T1, murine E^d MHC class II allele (Mus musculus, UniProt P01904+P01915)
T1 sequence (P01904 26-255): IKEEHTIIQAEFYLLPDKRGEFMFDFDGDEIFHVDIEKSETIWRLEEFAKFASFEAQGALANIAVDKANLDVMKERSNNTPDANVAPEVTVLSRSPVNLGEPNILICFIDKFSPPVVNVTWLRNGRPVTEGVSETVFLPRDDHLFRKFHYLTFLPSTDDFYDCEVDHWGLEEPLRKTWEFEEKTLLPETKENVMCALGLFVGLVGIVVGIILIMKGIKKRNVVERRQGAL
T1 sequence (P01915 27-264 limits assumed): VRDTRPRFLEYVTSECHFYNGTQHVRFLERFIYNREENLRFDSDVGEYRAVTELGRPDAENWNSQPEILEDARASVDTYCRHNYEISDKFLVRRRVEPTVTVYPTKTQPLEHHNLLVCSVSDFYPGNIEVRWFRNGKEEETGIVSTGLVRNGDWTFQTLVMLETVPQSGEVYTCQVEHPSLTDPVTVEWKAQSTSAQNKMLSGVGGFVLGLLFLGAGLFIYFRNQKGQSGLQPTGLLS
Experiment: processed antigen assay, E^d allele (APC pulsed with native HEL)
Format: cell-based
Set-up: The A20 and CH27 B cell lymphoma lines express H-2^d and H-2^k alleles, respectively; endogenous in cells; host or cells: A20 B cell lymphoma (mitomycin C-treated or paraformaldehyde-fixed)
Settings: AE peptide 64 μM; for T cell response relative to baseline (None = 1.00), E^d: Table 31
Procedure: In a third type of assay, the “processed antigen assay”, certain of the AE101 series of peptides inhibit stimulation of specific T cell hybridomas by antigenic peptides which are derived from the endogenous processing of a native protein antigen. This assay, which is related to the peptide prepulse assay, is performed by incubating APC with native protein antigen for 8 h, after which the pulsed APC are washed and treated with mitomycin C. Those pulsed APC are then combined with AE101 series peptides and T cell hybridomas and are incubated for 24 h. After that incubation, an aliquot of the culture supernatant is transferred to a second culture to measure T cell stimulation, as reflected in the effect of released interleukins on the growth of an interleukin-dependent, indicator cell line. During the 8 h incubation with native protein antigen, the protein antigen is taken into the APC. The native protein enters the processing pathway within the APC, where it is enzymatically cleaved to peptide fragments. Those peptide fragments with high affinity for the particular MHC class II molecules produced by the APC form antigenic peptide/MHC class II complexes which are transported to the cell surface. At the cell surface, the MHC class II molecules are contacted by the AE101 peptides, which cause the release of the antigenic peptide by the same mechanism proposed for the “peptide prepulse” assay above.
The “processed antigen assay” was carried out under essentially the same conditions as the “peptide prepulse assay”, with the following modifications. Untreated APC were incubated at 1×10^6/mL in 24-well plates (1 mL/well) with native protein antigen for 8 h. Following that incubation, the pulsed APC were washed, treated with mitomycin C, and washed again. AE101 series peptide was added at 64 μM, 16 μM, 4 μM, and 1 μM concentrations for 24 h in the presence of the T cell hybridoma specific for the antigenic peptide. Interleukin release from these cultures was measured by proliferation of HT-2 cells to interleukins in supernatants transferred from the primary culture. The baseline T cell response was measured by culturing T hybridoma cells with the native antigen-prepulsed APC in the absence of AE101 series peptides.
The “processed antigen assay” was carried out under essentially the same conditions as the “peptide prepulse” assay, with the following modifications. Untreated APC were incubated at 1×10^6/mL in 24-well plates (1 mL/well) with native protein antigen for 8 h. Following incubation, the pulsed APC were washed, treated with mitomycin C, and were washed again. The assay conditions were then as described for “peptide prepulse” above. The baseline T cell response was measured by culturing T hybridoma cells with the native antigen-prepulsed APC in the absence of AE101 peptides.
Table 2.9: Activities of substitution series at Leucine^80 in AE114 in a processed antigen assay. […] The results in this assay constitute, relatively, a mirror image of the result in the simultaneous assay (Example 1, Table 7) and parallel those of the antigenic peptide prepulse assay (Example 5, Table 24). Untreated APC were incubated with native HEL, instead of antigenic peptide, for 8 h. After incubation, the pulsed cells were washed and mitomycin C treated before being cocultured with AE-peptides and T cell hybridomas. Wells containing only T cells and native HEL-prepulsed APC were used to determine the Baseline response, or 1, in the absence of AE peptides. The concentration of AE peptide used was 64 μM for these assays. The supernatant dilutions used in the HT-2 cell assay were 1:4 (first value) and 1:8 (second value).

[1] = Table 30, native HEL prepulse 10 μM, supernatant dilution 1:8
[2] = native HEL prepulse 10 μM, supernatant dilution 1:4
[3] = Table 32, native HEL prepulse 20 μM, supernatant dilution 1:4

Substance | T cell response relative to baseline (None = 1.0), E^d [1] | T cell response relative to baseline (None = 1.00), E^d [2] | T cell response relative to baseline (None = 1.0), E^d [3]
Ac- (mL) RMKLPK-NH2 [AE174] | 0.86 |  | 
Ac-ARMKLPKSAK-NH2 [AE120] |  | 0.51 | 
Ac-ARMKNPK-NH2 [AE345] |  | 0.81 | 
Ac-ARNKLPK-NH2 [AE344] |  | 0.76 | 
Ac-ARNKNPF-NH2 [AE347] |  | 0.80 | 
Ac-ARNKNPK-NH2 [AE346] |  | 0.78 | 
Ac-LR (mL) KLPK-NH2 [AE302] | 0.51 |  | 
Ac-LR (mL) KYPK-NH2 [AE303] | 0.82 |  | 
Ac-LR (mL) KYPk-NH2 [AE305] | 0.70 |  | 
Ac-LR (mL) KyPK-NH2 [AE304] | 0.77 |  | 
Ac-LR (mL) KyPk-NH2 [AE306] | 0.68 |  | 
Ac-LR HArg KLPK-NH2 [AE197] |  |  | 0.45
Ac-LR L KLPK-NH2 (Ac-LRLKLPK-NH2; not fully specified; printed as Ac-LR L KLPK-NH2) [AE206] | 0.22 | 0.41 | 0.46
Ac-LR N KLPK-NH2 (Ac-LRNKLPK-NH2) [AE202] |  | 0.76 | 
Ac-LRLK HArg PK-NH2 [AE341] |  | 0.12 | 
